Test results published in US20220372150A1 (ZHEJIANG DOER BIOLOGICS, published 2022).

Legend:
[1] = target: T1, Mouse mPDL1-HSA fusion protein (mouse); test: ELISA on coated mPDL1-HSA, anti-his detection
T1 construct: The entry is the whole fusion of mouse PD-L1 with HSA; also called mouse PDL1
Method: Mouse mPDL1-HSA fusion protein (SEQ ID NO: 52) was coated onto a plate overnight in an amount of 200 ng/ well at 4° C., and blocked with 5% skimmed milk powder for 1 hr at room temperature. The purified histidine-tagged anti-PDL1single-domain antibody was diluted to 1 μg/mL, then added to the plate in an amount of 100 μL/well, and incubated at 37° C. for 1 hr. After washing three times with PBST, 100 μl/well of 1:5000 diluted mouse anti his tag antibody (R&D Systems Inc) was added, and the plate was incubated at room temperature for 1 hr. After washing with PBST, 100 μl/well of 1:10000 diluted HRP-Goat anti mouse IgG antibody (Thermo Scientific) was added, and the plate was incubated at room temperature for 1 hr. After washing with PBST, TMB was added for color development, and the OD value was detected at 450 nm.

[2] = target: T2, HSA (purchased from Sigma) (human, UniProt P02768 25-609); test: ELISA, VHH at 1 µg/mL on coated HSA, anti-his detection
T2 construct: Control coating for the fusion partner of PDL1-HSA; also called human serum albumin
Method: (§1) Human PDL1-HSA or HSA (purchased from Sigma) was coated onto a plate in an amount of 200 ng/well at 4° C., and blocked with 5% skimmed milk powder for 1 hr at room temperature. The purified anti-PDL1single-domain antibody with a histidine-tag was diluted to 1 μg/mL, added to the plate in an amount of 100 μL/well, and incubated at 37° C. for 1 hr. After washing three times with PBST, 100 μl/well of 1:5000 diluted mouse anti-his tag antibody (R&D Systems Inc.) was added, and the plate was incubated at room temperature for 1 hr. After washing with PBST, 100 μwell of 1:10000 diluted HRP-Goat anti mouse IgG antibody (Thermo Scientific) was added, and the plate was incubated at room temperature for 1 hr. After washing with PBST, a TMB developing solution (Beijing ComWin Biotech Co., Ltd) was added for color development, and the OD value was read at 450 nm.

[3] = target: T3, PDL1-HSA fusion protein composed of PDL1 extracellular domain and human serum albumin (human); test: ELISA, VHH at 1 µg/mL on coated PDL1-HSA, anti-his detection
T3 construct: The entry is the whole fusion: PD-L1 extracellular domain, linker, human serum albumin; also called Human PDL1-HSA; hPDL1-HSA
Method: as §1

[4] = target: T3, PDL1-HSA fusion protein composed of …; test: competitive ELISA on coated PDL1-HSA; competitor PD1-Fc (4.8 µg/mL, mixed in equal volume)
Method: PDL1-HSA was coated onto a plate overnight in an amount of 200 ng/well at 4° C., and blocked with 5% skimmed milk powder for 1 hr at room temperature. […] 100 μl was added per well and incubated at 37° C. for 1 hr. After washing three times with PBST, 100 μl of 1:20000 diluted HRP-Goat anti-Human IgG Fc(Novex) was added to each well, and incubated at room temperature for 1 hr. After washing three times with PBS, TMB substrate was added, and the plated was incubated at 37° C. After incubation for 5 min to develop color, 1 M sulfuric acid was added to stop the reaction. The OD value was read at 450 nm, and the half maximal inhibitory concentration (IC50 value) was calculated.

T3 sequence (chain, as listed by the source limits assumed): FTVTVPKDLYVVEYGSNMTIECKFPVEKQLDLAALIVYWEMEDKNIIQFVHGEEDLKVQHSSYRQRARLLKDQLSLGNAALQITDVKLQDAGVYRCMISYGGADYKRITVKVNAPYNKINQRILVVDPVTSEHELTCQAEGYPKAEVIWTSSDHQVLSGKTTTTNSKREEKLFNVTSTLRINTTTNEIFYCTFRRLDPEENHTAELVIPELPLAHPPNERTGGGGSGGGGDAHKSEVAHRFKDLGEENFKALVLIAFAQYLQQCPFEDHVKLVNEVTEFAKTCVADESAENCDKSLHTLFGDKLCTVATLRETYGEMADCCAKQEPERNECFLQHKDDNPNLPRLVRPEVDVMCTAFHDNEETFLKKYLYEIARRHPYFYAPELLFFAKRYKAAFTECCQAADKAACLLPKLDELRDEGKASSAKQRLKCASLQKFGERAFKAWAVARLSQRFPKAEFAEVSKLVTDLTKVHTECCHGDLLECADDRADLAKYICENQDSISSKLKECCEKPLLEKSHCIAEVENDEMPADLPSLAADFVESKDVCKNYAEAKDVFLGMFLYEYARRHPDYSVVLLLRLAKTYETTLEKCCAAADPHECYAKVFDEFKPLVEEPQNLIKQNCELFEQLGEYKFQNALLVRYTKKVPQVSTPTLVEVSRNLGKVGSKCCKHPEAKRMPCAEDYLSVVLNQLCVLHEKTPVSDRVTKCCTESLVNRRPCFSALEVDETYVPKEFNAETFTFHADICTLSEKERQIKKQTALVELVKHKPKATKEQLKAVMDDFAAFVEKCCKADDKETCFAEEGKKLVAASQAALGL
T2 sequence (P02768 25-609 limits assumed): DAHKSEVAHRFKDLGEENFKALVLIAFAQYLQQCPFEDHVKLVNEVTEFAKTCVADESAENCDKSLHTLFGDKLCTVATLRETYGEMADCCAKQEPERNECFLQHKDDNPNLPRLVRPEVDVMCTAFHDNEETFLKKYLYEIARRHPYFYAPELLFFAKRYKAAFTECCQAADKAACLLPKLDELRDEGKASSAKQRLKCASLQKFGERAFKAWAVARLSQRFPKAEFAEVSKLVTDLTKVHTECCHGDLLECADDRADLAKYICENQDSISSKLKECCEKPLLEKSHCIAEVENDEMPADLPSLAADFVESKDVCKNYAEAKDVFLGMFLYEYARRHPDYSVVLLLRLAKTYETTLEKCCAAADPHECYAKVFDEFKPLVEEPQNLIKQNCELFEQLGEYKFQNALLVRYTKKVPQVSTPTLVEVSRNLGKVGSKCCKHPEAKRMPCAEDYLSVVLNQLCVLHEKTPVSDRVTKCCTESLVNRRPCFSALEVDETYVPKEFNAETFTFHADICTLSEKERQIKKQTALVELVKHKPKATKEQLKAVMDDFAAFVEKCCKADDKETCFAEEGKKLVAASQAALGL
T1 sequence (chain, as listed by the source limits assumed): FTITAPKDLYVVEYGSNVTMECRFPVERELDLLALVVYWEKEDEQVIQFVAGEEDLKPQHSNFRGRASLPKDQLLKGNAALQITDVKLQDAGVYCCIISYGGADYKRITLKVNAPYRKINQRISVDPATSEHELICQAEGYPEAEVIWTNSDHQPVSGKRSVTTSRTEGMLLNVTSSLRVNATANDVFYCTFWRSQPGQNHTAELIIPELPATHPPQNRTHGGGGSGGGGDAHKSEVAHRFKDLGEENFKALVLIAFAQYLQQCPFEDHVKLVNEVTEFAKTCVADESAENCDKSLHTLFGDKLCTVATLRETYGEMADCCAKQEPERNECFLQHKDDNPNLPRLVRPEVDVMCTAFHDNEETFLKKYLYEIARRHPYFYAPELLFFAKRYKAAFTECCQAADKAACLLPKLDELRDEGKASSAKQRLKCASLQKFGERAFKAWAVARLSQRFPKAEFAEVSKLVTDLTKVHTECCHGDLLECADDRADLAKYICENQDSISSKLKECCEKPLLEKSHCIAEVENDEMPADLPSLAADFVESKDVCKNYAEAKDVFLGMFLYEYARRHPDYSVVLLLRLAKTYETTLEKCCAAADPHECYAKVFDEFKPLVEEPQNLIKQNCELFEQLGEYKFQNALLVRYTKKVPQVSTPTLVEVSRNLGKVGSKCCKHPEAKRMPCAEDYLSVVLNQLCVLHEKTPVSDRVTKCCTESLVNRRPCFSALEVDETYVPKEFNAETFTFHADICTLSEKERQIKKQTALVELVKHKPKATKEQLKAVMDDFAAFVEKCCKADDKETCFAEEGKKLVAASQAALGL

Row | binding result [1] | OD450 nm [2] [OD450 nm] | OD450 nm [3] [OD450 nm] | IC50 [4] [µg/mL] | Binder
1 | no binding (tested: 1 µg/mL) | 0.074 | 2.01 | 0.0452 | anti-PDL1 single-domain antibody 1D1, histidine-tagged (VHH, not shown: C-terminal histidine tag) VHH: QLQLVESGGGLVQAGGSLRLSCAASGGTFITYAMGWFRQAPGKDREFVAGISWSGSSTYYTDSVKGRFTISRDNAKNTVYLQMNSLKPGDTAVYYCAAKISGATREHLMTSYDYWGQGTQVTVSS
2 | no binding (tested: 1 µg/mL) | 0.064 | 2.02 | 0.0436 | anti-PDL1 single-domain antibody 5A8, histidine-tagged (VHH, not shown: C-terminal histidine tag) VHH: QLQLVESGGGLVQPGGSLRLSCAASGGTFITYAMGWFRQAPGKDREFVAGISWSGSSTYYTDSVKGRFTISRDNAQNTVYLQMNSRKPGDTAVYYCAAKISGATREHLRTSYDYGGQGTQVTVSS
3 | no binding (tested: 1 µg/mL) | 0.076 | 2.15 | 0.0551 | anti-PDL1 single-domain antibody 1D7, histidine-tagged (VHH, not shown: C-terminal histidine tag) VHH: QVQLVESGGGLVQPGGSLRLSCAASGRAFLTYAMGWFRQAPGKEREFVAAISWSGSSTYYADSVKGRFTISRDNAKNMVYLQMNSLKPEDTAVYYCAAKVSGATRDHLMTTYDYWGQGTQVTVSS
4 | no binding (tested: 1 µg/mL) | 0.073 | 2.08 | 0.0628 | anti-PDL1 single-domain antibody 1G10, histidine-tagged (VHH, not shown: C-terminal histidine tag) VHH: QVQLVESGGGLVQAGGSLRLSCAASGRPFITYAMGWFRQAPGKEREFVAAINWSGSITAYADSVKGRFTISRDNAKNAAYLQMNSLKPDDTAVYYCASKRTAVAPRALNDYDFWGQGTQVTVSS
5 | no binding (tested: 1 µg/mL) | 0.082 | 2.05 | 0.0505 | anti-PDL1 single-domain antibody 1A7, histidine-tagged (VHH, not shown: C-terminal histidine tag) VHH: QLQLVESGGDLVQPGGSLRLSCAASGSIFSANLIDWYRQPPGKQRELVAVISSRGITSYADSVKGRFTISRDNAKNTVYLQMNSLKPEDTAVYYCHLFHTDGLGYWGQGTQVTVSS
6 | no binding (tested: 1 µg/mL) | 0.081 | 2.05 | 0.0527 | anti-PDL1 single-domain antibody 6F1, histidine-tagged (VHH, not shown: C-terminal histidine tag) VHH: QLQLVESGGGLVQPGGSLRLSCAASGRTFSTHSMHWFRQAPEKERVFVAAINWNGDSTYYADSVKGRFTISRDNSKNTVDLQMNNLKPEDTAVYVCAARPGAPSTIVAMLDYWGQGTQVTVSS
